Molecular target: sh3k1_human SH3KBP1 (UniProt Q96B97)

Substance: Polyubiquitin-C (Homo sapiens) (from UniProt P0CG48) K6E
- effect of a mutation on the interaction: decreasing interaction

Reference: IntAct's records for PubMed 18680311
